Our source for the Kd values is paper PMC6662825 (2019).

The test addresses T1, MBP-ZCCHC8^91–211-(GS)3-eYFP (human, UniProt Q6NZY4 91-211).
T1 chain: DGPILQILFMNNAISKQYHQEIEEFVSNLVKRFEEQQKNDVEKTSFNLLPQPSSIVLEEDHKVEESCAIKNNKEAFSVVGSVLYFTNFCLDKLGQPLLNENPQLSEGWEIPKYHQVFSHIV
Description: MST.

B1: MTR4-KOW (domain or fragment)
chain: HKPKYCLPFLQPGRLVKVKNEGDDFGWGVVVNFSKKSNVKPNSGELDPLYVVEVLLRCSKESLKNSATEAAKPAKPDEKGEMQVVPVLVHLLSAISSVRLYIPKDLRPVDNRQSVLKSIQEVQKRFPDGIPLLDPIDDMGIQD
For orientation: Kd means the equilibrium constant for the complex coming apart. Consider B1, for which the Kd was 327 nM.
